Experimental data as given in patent US20240412835.

System: PD-1 TALEN (left/right pair, split FokI) (synthetic construct)
Assay: cell_activity
Conditions: median of 6 TIL lots (38.09-74.73), NGS; document lists two candidate PD-1 TALEN pairs and does not state which was used

PDCD1 exon 2 target site
activity: 54 % indels
